Measurements as given in patent US20060002929A1.

Tests used:
Human Fc-OX40L (human) [1] = target: Human Fc-OX40L (human) (UniProt P23510); experiment: BIAcore, immobilized hFc-OX40L
Human Fc-OX40L (human) [2] = target: Human Fc-OX40L (human) (UniProt P23510); experiment: cell-based or functional assay

Chain of Human Fc-OX40L (human) (P23510 51-183 limits assumed): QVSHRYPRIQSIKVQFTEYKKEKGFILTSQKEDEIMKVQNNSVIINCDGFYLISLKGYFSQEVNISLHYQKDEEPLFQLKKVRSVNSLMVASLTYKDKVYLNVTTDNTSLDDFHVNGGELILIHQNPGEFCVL

B1: Ab G (antibody, part only; not given: light chain, part only)
heavy: MEFGLSWIFLAAILKGVQCEVQLVESGGGLVKPGGSLRLSCAASGFTFSNAWMSWVRQAPGKGLEWIGRIKSKTEGGTTDYGAPVKGRFTISRDDSKNTLYLQMNSLKTEDTAVYSCTTDFLWFGEFPFDYWGQGTLVTVSSASTKGPSVFPLAPCSRSTSESTAALGCLVKDYFPEPVTVSWNSGALTSGVHTFPAVLQSSGLYSLSSVVTVPSSNFGTQTYTCNVDHKPSNTKVDKTVERKCCVECPPCPAPPVAGPSVFLFPPKPKDTLMISRTPEVTCVVVDVSHEDPEVQFNWYVDGVEVHNAKTKPREEQFNSTFRVVSVLTVVHQDWLNGKEYKCKVSNKGLPAPIEKTISKTKGQPREPQVYTLPPSREEMTKNQVSLTCLVKGFYPSDIAVEWESNGQPENNYKTTPPMLDSDGSFFLYSKLTVDKSRWQQGNVFSCSVMHEALHNHYTQKSLSLSPGK
Which results are given for B1?
EC50 (Human Fc-OX40L (human) [1]): 0.4 nM; Costimulation Value (IC50), T cell proliferation (3H-thymidine) (Human Fc-OX40L (human) [2]): 3.2; IL-2 Inhibition (IC50 [nM]) (Human Fc-OX40L (human) [2]): 0.22 nM
